These results are taken from PMC12622518 (Advanced Science, 2025).

As a reminder, the stoichiometry N is the number of molecules, sites or subunits per partner or assembly.

For data set [1], the target named is ligand-binding domain of CsiR (CsiR-LBD) (P. putida KT2440). Put plainly: SEC; gel filtration on Superdex 200 10/300 GL, 50 mM sodium phosphate buffer pH 7.2, 150 mM NaCl; mass standards aprotinin, ovalbumin, conalbumin, aldolase, ferritin.
The next data set deals with T1, CsiR (Pseudomonas putida, UniProt Q88IU1).
T1 construct: full-length, His6-tagged, purified from E. coli BL21(DE3) (pETDuet-CsiR); dimer
T1 sequence (Q88IU1 1-231): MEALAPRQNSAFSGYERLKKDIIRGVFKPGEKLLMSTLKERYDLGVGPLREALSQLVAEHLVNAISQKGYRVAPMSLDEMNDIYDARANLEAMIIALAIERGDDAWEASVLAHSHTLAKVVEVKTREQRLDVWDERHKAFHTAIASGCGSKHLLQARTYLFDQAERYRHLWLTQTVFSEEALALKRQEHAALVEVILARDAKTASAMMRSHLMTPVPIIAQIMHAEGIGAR
Put plainly: fluorescence-based thermal shift (SYPRO Orange). It is filed as binding. Conditions: 100 µM ligand; 20 mM sodium phosphate, 150 mM NaCl, pH 7.4.

The target in a further data set is T2, YnfM (Escherichia coli, UniProt P43531).
T2 construct: native MFS exporter in living E. coli BL21(DE3) cells; ynfM knockout comparison with Glusor read-out
T2 sequence (P43531 1-417): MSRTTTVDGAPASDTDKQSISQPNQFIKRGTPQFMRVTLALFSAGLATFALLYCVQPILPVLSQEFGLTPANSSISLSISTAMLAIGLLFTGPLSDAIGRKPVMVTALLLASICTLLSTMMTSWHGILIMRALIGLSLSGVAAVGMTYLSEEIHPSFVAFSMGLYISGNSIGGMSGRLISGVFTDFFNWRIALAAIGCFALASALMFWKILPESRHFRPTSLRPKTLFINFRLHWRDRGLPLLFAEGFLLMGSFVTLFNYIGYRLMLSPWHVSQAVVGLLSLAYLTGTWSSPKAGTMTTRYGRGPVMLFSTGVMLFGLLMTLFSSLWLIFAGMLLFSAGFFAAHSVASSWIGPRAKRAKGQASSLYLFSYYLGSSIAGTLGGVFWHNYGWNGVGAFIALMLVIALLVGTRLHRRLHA
Put plainly: efflux in knockout versus parent E. coli, intra- and extracellular Glusor fluorescence. Type of data set: cell-based. Conditions: carbon starvation, 30 °C.

Data set [2] concerns the molecule itself. Put plainly: SEC; gel filtration on Superdex 200 10/300 GL, 50 mM sodium phosphate buffer pH 7.2, 150 mM NaCl; mass standards aprotinin, ovalbumin, conalbumin, aldolase, ferritin. In general terms: SEC sorts molecules by how far they enter the pores of the column.

In data set [1], “ligand-binding domain of CsiR (CsiR-LBD) (domain or fragment)” displayed a stoichiometry N of 2.
Take `O=C(O)CCCC(=O)O` [glutarate]: the ΔTm result on CsiR is recorded as “only glutarate induced a significant increase in the melting temperature (Tm) of CsiR”. For the same molecule, the “efflux in knockout versus parent E. coli, intra- and extracellular Glusor fluore” value on YnfM is listed as “YnfM may be the only functional glutarate exporter in E. coli BL21(DE3)”.

B1: genetically encoded glutarate fluorescent biosensor Glusor (other)
chain: LDEMNDIYDARANLEAMIIALAIERGDDAWEASVLAHSHTLAKVVEVKTREQRLDVWDERHKAFHTAIASGCGSKHLLQARTYLFDQAERYRHLWLTQTVFSEEALALKRQEHAALVEVILARDAKTASAMMRSHLMTPVPIIAQIMHAEGIGAR
As for B1, the “stoichiometry N” value in data set [2] came out at 2.

B2: GntR family transcriptional regulator CsiR (natural protein, P. putida KT2440, UniProt Q88IU1 1-231, looked up)
chain: T1 sequence (Q88IU1 1-231)
notes: CsiR, GntR family transcriptional regulator of the csiD-lhgO operon, Pseudomonas putida KT2440; csiR gene cloned into pETDuet-1 (pETDuet-CsiR); also called His6-tagged CsiR
For B2, in data set [2], the “stoichiometry N” value is 2.
